Source: patent US20240391954A1, “MC4R AGONIST PEPTIDES” (The Regents of the University of Michigan, priority 2021, published 2024)
Starred links: 1 amine or outer side, 2 acyl side, 3 side chain; linkers in the order of their positions; H or OH if unused. Positions of bridges follow the written chain, without caps; N, C: chain ends. Non-standard residues stand in square brackets, D forms with d. Residues, ends and D or L forms follow the SMILES beside them. Primed or numbered codes have the meaning given here. dTyr(4-OMe)″ = O-methyl-D-tyrosine, COc1ccc(C[C@@H](N[*:1])C(=O)[*:2])cc1; Phe(4-Br) = N[C@@H](Cc1ccc(Br)cc1)C(=O)O; dPhe(4-Br) = N[C@H](Cc1ccc(Br)cc1)C(=O)O; hCit = NC(=O)NCCCC[C@H](N)C(=O)O; Cit = NC(=O)NCCC[C@H](N)C(=O)O; Nle = CCCC[C@H](N)C(=O)O; Aib = CC(C)(N)C(=O)O

B1: CTX-1637 (peptide)
peptide: Ac-CGH[dF]RFC-NH2
modifications: disulfide 1-7
SMILES: CC(=O)N[C@H]1CSSC[C@@H](C(N)=O)NC(=O)[C@H](Cc2ccccc2)NC(=O)[C@H](CCCNC(=N)N)NC(=O)[C@@H](Cc2ccccc2)NC(=O)[C@H](Cc2c[nH]cn2)NC(=O)CNC1=O
B2: CTX-1607 (peptide)
peptide: Ac-R[Nle]C[Cit][dF]RWC-NH2
modifications: disulfide 3-8
SMILES: CCCC[C@H](NC(=O)[C@H](CCCNC(=N)N)NC(C)=O)C(=O)N[C@H]1CSSC[C@@H](C(N)=O)NC(=O)[C@H](Cc2c[nH]c3ccccc23)NC(=O)[C@H](CCCNC(=N)N)NC(=O)[C@@H](Cc2ccccc2)NC(=O)[C@H](CCCNC(N)=O)NC1=O
B3: CTX-1618 (peptide)
peptide: Ac-R[Nle]C[hCit][dF]RWC-NH2
modifications: disulfide 3-8
SMILES: CCCC[C@H](NC(=O)[C@H](CCCNC(=N)N)NC(C)=O)C(=O)N[C@H]1CSSC[C@@H](C(N)=O)NC(=O)[C@H](Cc2c[nH]c3ccccc23)NC(=O)[C@H](CCCNC(=N)N)NC(=O)[C@@H](Cc2ccccc2)NC(=O)[C@H](CCCCNC(N)=O)NC1=O
B4: CTX-1202 (peptide)
peptide: {CH2CO}-[dA]H[dF]RWC-NH2
modifications: thioether N-6
SMILES: C[C@H]1NC(=O)CSC[C@@H](C(N)=O)NC(=O)[C@H](Cc2c[nH]c3ccccc23)NC(=O)[C@H](CCCNC(=N)N)NC(=O)[C@@H](Cc2ccccc2)NC(=O)[C@H](Cc2c[nH]cn2)NC1=O
B5: CTX-1293 (peptide)
peptide: Ac-RCGR[dF]RWC-NH2
modifications: disulfide 2-8
SMILES: CC(=O)N[C@@H](CCCNC(=N)N)C(=O)N[C@H]1CSSC[C@@H](C(N)=O)NC(=O)[C@H](Cc2c[nH]c3ccccc23)NC(=O)[C@H](CCCNC(=N)N)NC(=O)[C@@H](Cc2ccccc2)NC(=O)[C@H](CCCNC(=N)N)NC(=O)CNC1=O
B6: CTX-1625 (peptide)
peptide: Ac-R[Nle]CH[dF]RFC-NH2
modifications: disulfide 3-8
SMILES: CCCC[C@H](NC(=O)[C@H](CCCNC(=N)N)NC(C)=O)C(=O)N[C@H]1CSSC[C@@H](C(N)=O)NC(=O)[C@H](Cc2ccccc2)NC(=O)[C@H](CCCNC(=N)N)NC(=O)[C@@H](Cc2ccccc2)NC(=O)[C@H](Cc2c[nH]cn2)NC1=O
B7: CTX-1206 (peptide)
peptide: Ac-CGH[dF]RWC-NH2
modifications: disulfide 1-7
SMILES: CC(=O)N[C@H]1CSSC[C@@H](C(N)=O)NC(=O)[C@H](Cc2c[nH]c3ccccc23)NC(=O)[C@H](CCCNC(=N)N)NC(=O)[C@@H](Cc2ccccc2)NC(=O)[C@H](Cc2c[nH]cn2)NC(=O)CNC1=O
B8: CTX-1257 (peptide)
peptide: Ac-RC[dA]R[dF]R[dF]C-NH2
modifications: disulfide 2-8
SMILES: CC(=O)N[C@@H](CCCNC(=N)N)C(=O)N[C@H]1CSSC[C@@H](C(N)=O)NC(=O)[C@@H](Cc2ccccc2)NC(=O)[C@H](CCCNC(=N)N)NC(=O)[C@@H](Cc2ccccc2)NC(=O)[C@H](CCCNC(=N)N)NC(=O)[C@@H](C)NC1=O

Legend:
[1] = target: T1, human MC3R (Homo sapiens, UniProt P41968); assay: split-luciferase cAMP sensor assay, agonist mode (measurement window 1), hMC3R; format: cell-based; details: agonist mode, hMC3R stable cell line; for Emax: read-out: MC3R cAMP % max activation; for EC50: read-out: MC3R cAMP EC50
T1 construct: expressed in transfected cells; host or cells: HEK-293 cells stably expressing the GScAMP22F split-luciferase cAMP sensor (parent reporter line from Promega); MC3R clone generated in-house, G418 selection
T1 sequence (P41968 whole entry): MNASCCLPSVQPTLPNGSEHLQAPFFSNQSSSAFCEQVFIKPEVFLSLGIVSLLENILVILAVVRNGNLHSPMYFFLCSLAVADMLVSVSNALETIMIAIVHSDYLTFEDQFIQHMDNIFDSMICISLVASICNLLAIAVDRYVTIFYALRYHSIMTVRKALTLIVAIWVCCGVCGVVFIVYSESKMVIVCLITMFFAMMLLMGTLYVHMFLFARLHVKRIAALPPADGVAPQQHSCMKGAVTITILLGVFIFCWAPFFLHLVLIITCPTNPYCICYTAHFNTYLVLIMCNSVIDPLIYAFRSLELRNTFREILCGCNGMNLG
How it was run: (§1)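 Live stable cell lines carrying receptor plus GloSensor cAMP22f split-luciferase, loaded with 4% D-luciferin in serum-free medium (~1% serum estimated during assay). Luminescence recorded during in-line peptide addition; direct agonist effect read in window 1, with 20 μM forskolin as normalization reference. EC50 from four-parameter sigmoid fit.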

[2] = target: T2, human MC4R (Homo sapiens, UniProt P32245); assay: split-luciferase cAMP sensor assay, agonist mode (measurement window 1), hMC4R; format: cell-based; details: for Emax: read-out: MC4R cAMP % max activation; for EC50: read-out: MC4R cAMP EC50
T2 construct: host or cells: HEK-293 cells stably expressing the GScAMP22F split-luciferase cAMP sensor and hMC4R, G418 selection
T2 sequence (P32245 whole entry): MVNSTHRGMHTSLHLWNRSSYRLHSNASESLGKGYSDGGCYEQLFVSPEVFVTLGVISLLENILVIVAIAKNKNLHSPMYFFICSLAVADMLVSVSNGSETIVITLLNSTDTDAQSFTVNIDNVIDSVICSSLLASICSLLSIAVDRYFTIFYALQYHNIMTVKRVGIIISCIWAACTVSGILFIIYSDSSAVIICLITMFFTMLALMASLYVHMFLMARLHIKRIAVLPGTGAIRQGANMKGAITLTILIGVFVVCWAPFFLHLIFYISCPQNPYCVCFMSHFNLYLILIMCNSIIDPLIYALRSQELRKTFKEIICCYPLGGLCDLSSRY
How it was run: as §1

[3] = target: human MC3R (human, UniProt P41968 1-323); assay: cell-based or functional assay
human MC3R (human, UniProt P41968 1-323), sequence (P41968 whole entry): as the sequence (P41968 whole entry) above

[4] = target: T3, human MC4R receptor (human, UniProt P32245 1-332); assay: cell-based or functional assay
T3 sequence (P32245 whole entry): as the sequence (P32245 whole entry) above

[5] = target: T3, human MC4R receptor; assay: cell-based or functional assay; remark: listed apart in the source
[6] = agonist mode, hMC4R stable cell line

Molecule	% max activation [3] [%]	cAMP EC50 [3] [nM]	cAMP EC50 [4] [nM]	MC4R selectivity vs MC1R [5]	% max activation [4] [%]	MC4R selectivity vs MC3R [5]	also measured
C[C@H]1NC(=O)[C@@H](NC(=O)[C@H](CCCNC(=N)N)NC(=O)COCCOCCNC(=O)COCCOCCNC(=O)CNC(=O)CCc2ccc(I)cc2)CSSC[C@@H](C(N)=O)NC(=O)[C@@H](Cc2c[nH]c3ccccc23)NC(=O)[C@H](CCCNC(=N)N)NC(=O)[C@@H](Cc2ccc(Br)cc2)NC(=O)[C@H](CCCNC(=N)N)NC1=O [CTX-1226, Arg-cyclo(Cys-D-Ala-Arg-D-Phe(4-Br)-Arg-D-Trp-Cys)]	–	–	–	–	–	–	Emax [1]: 29%; Emax [2, 6]: 71%
CC(=O)N[C@@H](CCCNC(=N)N)C(=O)N[C@H]1CSSC[C@@H](C(N)=O)NC(=O)[C@H](Cc2c[nH]c3ccccc23)NC(=O)[C@H](CCCNC(=N)N)NC(=O)[C@@H](Cc2c[nH]c3ccccc23)NC(=O)[C@H](CCCNC(=N)N)NC(=O)[C@@H](C)NC1=O [CTX-1274, Arg-cyclo(Cys-D-Ala-Arg-D-Trp-Arg-Trp-Cys)] (Ac-RC[dA]R[dW]RWC-NH2; disulfide 2-8)	–	–	–	–	–	–	Emax [1]: 5.4%; MC4R selectivity vs MC1R [2]: 0.19; MC4R selectivity vs MC3R [2]: 0.12; Emax [2, 6]: 77%; EC50 [2, 6]: 1400 nM
CC(=O)N[C@@H](CCCNC(=N)N)C(=O)N[C@H]1CSSC[C@@H](C(N)=O)NC(=O)[C@@H](Cc2c[nH]c3ccccc23)NC(=O)[C@H](CCCNC(=N)N)NC(=O)[C@@H](Cc2c[nH]c3ccccc23)NC(=O)[C@H](CCCNC(=N)N)NC(=O)[C@@H](C)NC1=O [CTX-1244, Arg-cyclo(Cys-D-Ala-Arg-D-Trp-Arg-D-Trp-Cys)] (Ac-RC[dA]R[dW]R[dW]C-NH2; disulfide 2-8 (inferred))	–	–	–	–	–	–	MC3R cAMP % max activation [1]: (10%); EC50 [1]: 13 nM; MC4R selectivity vs MC1R [2]: 0.26; MC4R selectivity vs MC3R [2]: 0.11; MC4R cAMP % max activation [2, 6]: (42%); EC50 [2, 6]: 109 nM
CC(=O)N[C@@H](CCCNC(=N)N)C(=O)N[C@H]1CSSC[C@@H](C(N)=O)NC(=O)[C@H](Cc2c[nH]c3ccccc23)NC(=O)[C@H](CCCNC(=N)N)NC(=O)[C@H](Cc2ccc(Br)cc2)NC(=O)[C@H](CCCNC(=N)N)NC(=O)[C@@H](C)NC1=O [CTX-1212] (Ac-RC[dA]R[Phe(4-Br)]RWC-NH2; disulfide 2-8)	–	–	–	–	–	–	Emax [1]: 0.1%; EC50 [1]: 28 nM; MC4R selectivity vs MC1R [2]: 0.07; MC4R selectivity vs MC3R [2]: 0.07; Emax [2, 6]: 55%
CC(=O)N[C@@H](CCCNC(=N)N)C(=O)N[C@H]1CSSC[C@@H](C(=O)N[C@@H](CCCNC(=N)N)C(=O)N[C@H](Cc2ccccc2)C(N)=O)NC(=O)[C@@H](Cc2c[nH]c3ccccc23)NC(=O)[C@H](CCCNC(=N)N)NC(=O)[C@@H](Cc2ccc(Br)cc2)NC(=O)[C@H](CCCNC(=N)N)NC(=O)[C@@H](C)NC1=O [CTX-1222, Arg-cyclo(Cys-D-Ala-Arg-D-Phe(4-Br)-Arg-D-Trp-Cys)-Arg-D-Phe] (Ac-RC[dA]R[dPhe(4-Br)]R[dW]CR[dF]-NH2; disulfide 2-8 (inferred))	–	–	–	–	–	–	Emax [1]: 38%; MC4R selectivity vs MC1R [2]: 0.1; MC4R selectivity vs MC3R [2]: 0.33; Emax [2, 6]: 79%
B1	98	68	–	–	–	–	–
{CH2CO}-G[Cit][dF]RFC-NH2 (thioether N-6) [CTX-1655]	–	> 10000	> 10000	–	–	–	–
B2	47	14	–	–	–	–	–
B3	33	29	–	–	–	–	–
B4	101	130	0.65	0.89	104	–	–
{CH2CO}-[Aib][Cit][dF]RFC-NH2 (thioether N-6) [CTX-1652]	–	> 10000	> 10000	–	–	–	–
B5	–	–	0.25	–	87	–	–
Ac-RCA[Cit][dF]R[dW]C-NH2 (disulfide 2-8) [CTX-1288]	36	1250	77	3.75	87	16	–
Ac-RC[Aib]R[dF]RWC-NH2 (disulfide 2-8) [CTX-1292]	76	3.3	0.16	2.46	90	21	–
{CH2CO}-[dA][Cit][dF]RFC-NH2 (thioether N-6) [CTX-1658]	–	> 10000	> 10000	–	–	–	–
B6	–	–	38	–	101	–	–
Ac-RC[Aib]R[dTyr(4-OMe)″]R[dW]C-NH2 (disulfide 2-8) [CTX-1297]	–	> 10000	3.3	0.52	97	> 3000	–
B7	94	12	–	–	101	23	–
Ac-RCG[Cit][dF]RWC-NH2 (disulfide 2-8) [CTX-1294]	33	40	3.5	111	102	11	–
B8	–	44	–	0.02	–	–	–
Ac-RC[Aib][Cit][dF]R[dW]C-NH2 (disulfide 2-8) [CTX-1290]	20	1040	112	10	88	9.23	–
Ac-RC[Aib][Cit][dF]RWC-NH2 (disulfide 2-8) [CTX-1289]	21	17	0.6	130	93	30	–
